The target in assay [1] is T1, human GLP-2 receptor (hGLP2-R) (human, UniProt O95838 1-553).
T1 sequence (looked up): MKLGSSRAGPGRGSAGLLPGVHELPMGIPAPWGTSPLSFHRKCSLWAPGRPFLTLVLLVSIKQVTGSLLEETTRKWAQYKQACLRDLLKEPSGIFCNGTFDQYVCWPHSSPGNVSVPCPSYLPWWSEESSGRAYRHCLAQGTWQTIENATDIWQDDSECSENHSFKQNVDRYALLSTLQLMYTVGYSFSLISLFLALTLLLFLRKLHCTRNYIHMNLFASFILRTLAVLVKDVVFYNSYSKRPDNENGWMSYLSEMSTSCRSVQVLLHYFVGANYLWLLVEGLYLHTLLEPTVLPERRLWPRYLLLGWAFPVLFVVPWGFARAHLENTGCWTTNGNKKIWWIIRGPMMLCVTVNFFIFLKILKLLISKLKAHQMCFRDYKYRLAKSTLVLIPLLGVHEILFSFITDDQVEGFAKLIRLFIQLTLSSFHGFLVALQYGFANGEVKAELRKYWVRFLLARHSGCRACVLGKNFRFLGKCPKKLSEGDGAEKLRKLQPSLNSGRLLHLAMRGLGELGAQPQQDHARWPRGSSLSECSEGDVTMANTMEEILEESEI
The experiment in a line: cell-based or functional assay.

For assay [2], the target named is human glucagon-like peptide 1 receptor (GLP-1 R) (human, UniProt P43220 24-463). The assay can be described thus: cell-based or functional assay.

*1 amine or outer side, *2 acyl side, *3 side chain or, on linkers, in order; H or OH if unused. Side-chain parts run from the residue outwards. [ ]: non-standard residue; d: D form. The star is where a group is joined. C20 diacid = O=C(O)CCCCCCCCCCCCCCCCCCC(=O)*; γGlu = O=C(O)[C@H](CCC(=O)[*:2])N[*:1]; AEEA = NCCOCCOCC(=O)O; Aib = CC(C)(N)C(=O)O

B1: Compound 45 (peptide)
peptide: H-H[Aib]EGSFTSELATILDEQAAK([AEEA-AEEA-γGlu-C20 diacid])DFIAWLIEHKITD-OH
SMILES: CC[C@H](C)[C@H](NC(=O)[C@H](Cc1ccccc1)NC(=O)[C@H](CC(=O)O)NC(=O)[C@H](CCCCNC(=O)COCCOCCNC(=O)COCCOCCNC(=O)CC[C@H](NC(=O)CCCCCCCCCCCCCCCCCCC(=O)O)C(=O)O)NC(=O)[C@H](C)NC(=O)[C@H](C)NC(=O)[C@H](CCC(N)=O)NC(=O)[C@H](CCC(=O)O)NC(=O)[C@H](CC(=O)O)NC(=O)[C@H](CC(C)C)NC(=O)[C@@H](NC(=O)[C@@H](NC(=O)[C@H](C)NC(=O)[C@H](CC(C)C)NC(=O)[C@H](CCC(=O)O)NC(=O)[C@H](CO)NC(=O)[C@@H](NC(=O)[C@H](Cc1ccccc1)NC(=O)[C@H](CO)NC(=O)CNC(=O)[C@H](CCC(=O)O)NC(=O)C(C)(C)NC(=O)[C@@H](N)Cc1c[nH]cn1)[C@@H](C)O)[C@@H](C)O)[C@@H](C)CC)C(=O)N[C@@H](C)C(=O)N[C@@H](Cc1c[nH]c2ccccc12)C(=O)N[C@@H](CC(C)C)C(=O)N[C@H](C(=O)N[C@@H](CCC(=O)O)C(=O)N[C@@H](Cc1c[nH]cn1)C(=O)N[C@@H](CCCCN)C(=O)N[C@H](C(=O)N[C@H](C(=O)N[C@@H](CC(=O)O)C(=O)O)[C@@H](C)O)[C@@H](C)CC)[C@@H](C)CC
Take B1: in assay [1], the “EC50 GLP-2 (nM); cAMP response” value worked out at 0.36 nM. The “EC50 GLP-1 (nM); cAMP response” value in assay [2] was 1.4 nM.

B2: Compound 46 (peptide)
peptide: H-H[Aib]EGTFTSELATILDEQAAK([AEEA-AEEA-γGlu-C20 diacid])DFIAWLIEHKITD-OH
SMILES: CC[C@H](C)[C@H](NC(=O)[C@H](Cc1ccccc1)NC(=O)[C@H](CC(=O)O)NC(=O)[C@H](CCCCNC(=O)COCCOCCNC(=O)COCCOCCNC(=O)CC[C@H](NC(=O)CCCCCCCCCCCCCCCCCCC(=O)O)C(=O)O)NC(=O)[C@H](C)NC(=O)[C@H](C)NC(=O)[C@H](CCC(N)=O)NC(=O)[C@H](CCC(=O)O)NC(=O)[C@H](CC(=O)O)NC(=O)[C@H](CC(C)C)NC(=O)[C@@H](NC(=O)[C@@H](NC(=O)[C@H](C)NC(=O)[C@H](CC(C)C)NC(=O)[C@H](CCC(=O)O)NC(=O)[C@H](CO)NC(=O)[C@@H](NC(=O)[C@H](Cc1ccccc1)NC(=O)[C@@H](NC(=O)CNC(=O)[C@H](CCC(=O)O)NC(=O)C(C)(C)NC(=O)[C@@H](N)Cc1c[nH]cn1)[C@@H](C)O)[C@@H](C)O)[C@@H](C)O)[C@@H](C)CC)C(=O)N[C@@H](C)C(=O)N[C@@H](Cc1c[nH]c2ccccc12)C(=O)N[C@@H](CC(C)C)C(=O)N[C@H](C(=O)N[C@@H](CCC(=O)O)C(=O)N[C@@H](Cc1c[nH]cn1)C(=O)N[C@@H](CCCCN)C(=O)N[C@H](C(=O)N[C@H](C(=O)N[C@@H](CC(=O)O)C(=O)O)[C@@H](C)O)[C@@H](C)CC)[C@@H](C)CC
In the case of B2, the “EC50 GLP-2 (nM); cAMP response” value in assay [1] came out at 0.38 nM. Further, in assay [2], the “EC50 GLP-1 (nM); cAMP response” value worked out at 0.26 nM.

B3: Compound 44 (peptide)
peptide: H-H[Aib]EGSFTSELATILEGK([AEEA-AEEA-γGlu-C20 diacid])AARDFIAWLIEHKITD-OH
As for B3, the “EC50 GLP-2 (nM); cAMP response” value in assay [1] amounted to 0.14 nM. Further, the “EC50 GLP-1 (nM); cAMP response” value in assay [2] was found to be 0.063 nM.

B4: Compound 43 (peptide)
peptide: H-H[Aib]EGSFTSELATILDK([AEEA-AEEA-γGlu-C20 diacid])KAARDFIAWLIEHKITD-OH
SMILES: CC[C@H](C)[C@H](NC(=O)[C@H](Cc1ccccc1)NC(=O)[C@H](CC(=O)O)NC(=O)[C@H](CCCNC(=N)N)NC(=O)[C@H](C)NC(=O)[C@H](C)NC(=O)[C@H](CCCCN)NC(=O)[C@H](CCCCNC(=O)COCCOCCNC(=O)COCCOCCNC(=O)CC[C@H](NC(=O)CCCCCCCCCCCCCCCCCCC(=O)O)C(=O)O)NC(=O)[C@H](CC(=O)O)NC(=O)[C@H](CC(C)C)NC(=O)[C@@H](NC(=O)[C@@H](NC(=O)[C@H](C)NC(=O)[C@H](CC(C)C)NC(=O)[C@H](CCC(=O)O)NC(=O)[C@H](CO)NC(=O)[C@@H](NC(=O)[C@H](Cc1ccccc1)NC(=O)[C@H](CO)NC(=O)CNC(=O)[C@H](CCC(=O)O)NC(=O)C(C)(C)NC(=O)[C@@H](N)Cc1c[nH]cn1)[C@@H](C)O)[C@@H](C)O)[C@@H](C)CC)C(=O)N[C@@H](C)C(=O)N[C@@H](Cc1c[nH]c2ccccc12)C(=O)N[C@@H](CC(C)C)C(=O)N[C@H](C(=O)N[C@@H](CCC(=O)O)C(=O)N[C@@H](Cc1c[nH]cn1)C(=O)N[C@@H](CCCCN)C(=O)N[C@H](C(=O)N[C@H](C(=O)N[C@@H](CC(=O)O)C(=O)O)[C@@H](C)O)[C@@H](C)CC)[C@@H](C)CC
Regarding B4, the “EC50 GLP-2 (nM); cAMP response” value in assay [1] is 0.15 nM. For the same molecule, the “EC50 GLP-1 (nM); cAMP response” value in assay [2] was 0.096 nM.

The values above are taken from patent US20200297818A1 (ZEALAND PHARMA A S, published 2020).
